Laboratory results reported in patent US20200024330A1.

Assays:
Test in all cases: cell-based or functional assay
[1] = target: MuLV envelope protein (control pseudovirus) (MuLV)
[2] = target: HIV-1 JR-FL Env E168K (pseudovirus) (HIV-1 JR-FL)
[3] = target: HIV-1 Env of isolate CAAN (HIV-1)
[4] = target: HIV-1 Env of isolate MG RM-A-007 (pseudovirus) (HIV-1)
[5] = target: HIV-1 Env of isolate MGRM-AE-001 (pseudovirus) (HIV-1)
[6] = target: HIV-1 Env of isolate 93TH305 (HIV-1)
[7] = target: HIV-1 Env of isolate MG RM-A-012 (pseudovirus) (HIV-1)
[8] = target: HIV-1 Env of isolate APV_6 (HIV-1)
[9] = target: HIV-1 Env of isolate MGRM-AE-003 (pseudovirus) (HIV-1)
[10] = target: HIV-1 Env of isolate MG RM-A-009 (pseudovirus) (HIV-1)
[11] = target: HIV-1 Env of isolate 92UG005 (subtype D), on pseudovirus (HIV-1)
[12] = target: HIV-1 Env of isolate 92UG024 (subtype D), on pseudovirus (HIV-1)
[13] = target: HIV-1 Env of isolate 98CN009 (subtype CRF07_BC), on pseudovirus (HIV-1)
[14] = target: HIV-1 Env of isolate 94UG103 (pseudovirus) (HIV-1)
[15] = target: HIV-1 Env of isolate 93WR029 (pseudovirus) (HIV-1)
[16] = target: HIV-1 Env of isolate 92UG001 (subtype D), on pseudovirus (HIV-1)
[17] = target: HIV-1 Env of isolate MG RM-A-005 (pseudovirus) (HIV-1)
[18] = target: HIV-1 MGRM-C-028 Env (pseudovirus) (HIV-1)
[19] = target: HIV-1 92TH021 Env (pseudovirus) (HIV-1)
[20] = target: HIV-1 92UG024 Env (pseudovirus) (HIV-1)
[21] = target: HIV-1 Env of isolate 93IN905 (clade C) (HIV-1)
[22] = target: HIV-1 Env of isolate APV6 (clade B) (HIV-1)
[23] = target: HIV-1 Env of isolate APV13 (clade B) (HIV-1)
[24] = target: HIV-1 Env of isolate JRCSF (clade B) (HIV-1) (UniProt P20871)
[25] = target: HIV-1 Env of isolate 92RW020 (clade A) (HIV-1)
[26] = target: HIV-1 Env of isolate SF162 (subtype B) (HIV-1) (UniProt P19550)
[27] = target: HIV-1 envelope glycoprotein (Env) of isolate MGRM-Chronic-B-020, on pseudovirus (HIV-1)
[28] = target: HIV-1 envelope glycoprotein (Env) of isolate APV_13, on pseudovirus (HIV-1)
[29] = target: HIV-1 Env of isolate MGRM-F1-021 (clade F), on pseudovirus (HIV-1)
[30] = target: HIV-1 envelope glycoprotein (Env) of isolate MGRM-Chronic-B-001, on pseudovirus (HIV-1)
[31] = target: HIV-1 Env of isolate MGRM-F1-023 (clade F), on pseudovirus (HIV-1)
[32] = target: HIV-1 MGRM-C-028 Env (clade C pseudovirus) (HIV-1)
[33] = target: HIV-1 92TH021 Env (clade AE pseudovirus) (HIV-1)
[34] = target: HIV-1 MGRM-C-026 Env (clade C pseudovirus) (HIV-1)
[35] = target: HIV-1 92UG024 Env (clade D pseudovirus) (HIV-1)
[36] = target: HIV-1 92UG005 Env (clade D pseudovirus) (HIV-1)
[37] = target: HIV-1 92RW020 Env (clade A pseudovirus) (HIV-1)

Chain of 1443_C16 (PG16) (TCN-116) (antibody) (VH): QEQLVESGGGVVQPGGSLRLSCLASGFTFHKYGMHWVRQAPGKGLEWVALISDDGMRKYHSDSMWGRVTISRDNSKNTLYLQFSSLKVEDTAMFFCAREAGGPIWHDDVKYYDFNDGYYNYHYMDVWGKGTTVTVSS
Chain of 1443_C16 (PG16) (TCN-116) (antibody) (VL): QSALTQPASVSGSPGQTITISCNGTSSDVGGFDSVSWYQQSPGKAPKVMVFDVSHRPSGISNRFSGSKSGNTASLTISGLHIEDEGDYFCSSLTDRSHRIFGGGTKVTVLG

1443_C16 (PG16) (TCN-116) (antibody)
IC50, pseudovirus neutralization (TZM-bl), control virus [1]: > 25 µg/mL | IC50 (ug/ml), neutralization [2]: 0.006 µg/mL | IC50, pseudovirus neutralization (TZM-bl) [3]: 6.37 µg/mL

VRC01 (antibody)
IC50 (µg/mL), pseudovirus neutralization [4]: 12.6 µg/mL | IC50 (µg/mL), pseudovirus neutralization [5]: 0.167 µg/mL | IC50 [6]: 0.243 µg/mL | IC50 (µg/mL), pseudovirus neutralization [7]: > 50 µg/mL | IC50 [8]: 1.81 µg/mL | IC50 (µg/mL), pseudovirus neutralization [9]: 0.685 µg/mL | IC50 (µg/mL), pseudovirus neutralization [10]: 0.118 µg/mL | IC50, pseudovirus neutralization [11]: 0.576 µg/mL | IC50, pseudovirus neutralization [12]: 0.576 µg/mL | IC50, pseudovirus neutralization [13]: 0.346 µg/mL | IC50 (µg/mL), pseudovirus neutralization [14]: 0.285 µg/mL | IC50 (µg/mL), pseudovirus neutralization [15]: 1.57 µg/mL | IC50, pseudovirus neutralization [16]: 1.16 µg/mL | IC50 (µg/mL), pseudovirus neutralization [17]: 0.095 µg/mL

5141_B17 (PGT-126) (antibody)
IC50 [18]: 0.283 µg/mL | IC80 [18]: 2.62 µg/mL | IC90 [18]: > 10 µg/mL | IC95 [18]: > 10 µg/mL | IC50 [19]: 0.115 µg/mL | IC80 [19]: 1.62 µg/mL | IC90 [19]: 6.91 µg/mL | IC95 [19]: > 10 µg/mL | IC50 [20]: > 10 µg/mL | IC80 [20]: > 10 µg/mL | IC90 [20]: > 10 µg/mL | IC95 [20]: > 10 µg/mL

5147_N06 (PGT-130) (antibody)
neutralization IC50 [21]: 0.0182 µg/mL | neutralization IC80 [21]: 0.272 µg/mL | neutralization IC90 [21]: 1.31 µg/mL | neutralization IC95 [21]: 5.48 µg/mL | neutralization IC50 [22]: > 10 µg/mL | neutralization IC80 [22]: > 10 µg/mL | neutralization IC90 [22]: > 10 µg/mL | neutralization IC95 [22]: > 10 µg/mL | neutralization IC50 [23]: 0.0345 µg/mL | neutralization IC80 [23]: 0.573 µg/mL | neutralization IC90 [23]: 2.88 µg/mL | neutralization IC95 [23]: > 10 µg/mL | neutralization IC50 [24]: 0.0089 µg/mL | neutralization IC80 [24]: 0.0317 µg/mL | neutralization IC90 [24]: 0.0669 µg/mL | neutralization IC95 [24]: 0.134 µg/mL | neutralization IC50 [25]: 0.014 µg/mL | neutralization IC80 [25]: 0.508 µg/mL | neutralization IC90 [25]: 3.68 µg/mL | neutralization IC95 [25]: > 10 µg/mL

PGV04 (antibody)
IC50 (µg/mL), pseudovirus neutralization [26]: 0.0028 µg/mL | IC50, pseudovirus neutralization [27]: 1.26 µg/mL | IC50, pseudovirus neutralization [28]: 1.23 µg/mL | IC50 (µg/mL), single-round pseudovirus neutralization [29]: 0.031 µg/mL | IC50, pseudovirus neutralization [30]: 0.048 µg/mL | IC50 (µg/mL), single-round pseudovirus neutralization [31]: 0.171 µg/mL

4877_D15 (PGT-122) (antibody)
Neutralization by PGT-122, IC50 [32]: 2.06 µg/mL | Neutralization by PGT-122, IC80 [32]: > 10 µg/mL | Neutralization by PGT-122, IC90 [32]: > 10 µg/mL | Neutralization by PGT-122, IC95 [32]: > 10 µg/mL | Neutralization by PGT-122, IC50 [33]: > 10 µg/mL | Neutralization by PGT-122, IC80 [33]: > 10 µg/mL | Neutralization by PGT-122, IC90 [33]: > 10 µg/mL | Neutralization by PGT-122, IC95 [33]: > 10 µg/mL | Neutralization by PGT-122, IC50 [34]: 0.0089 µg/mL | Neutralization by PGT-122, IC80 [34]: 0.037 µg/mL | Neutralization by PGT-122, IC90 [34]: 0.0849 µg/mL | Neutralization by PGT-122, IC95 [34]: 0.181 µg/mL | Neutralization by PGT-122, IC50 [35]: > 10 µg/mL | Neutralization by PGT-122, IC80 [35]: > 10 µg/mL | Neutralization by PGT-122, IC90 [35]: > 10 µg/mL | Neutralization by PGT-122, IC95 [35]: > 10 µg/mL | Neutralization by PGT-122, IC50 [36]: > 10 µg/mL | Neutralization by PGT-122, IC80 [36]: > 10 µg/mL | Neutralization by PGT-122, IC90 [36]: > 10 µg/mL | Neutralization by PGT-122, IC95 [36]: > 10 µg/mL | Neutralization by PGT-122, IC50 [37]: 0.0072 µg/mL | Neutralization by PGT-122, IC80 [37]: 0.0407 µg/mL | Neutralization by PGT-122, IC90 [37]: 0.113 µg/mL | Neutralization by PGT-122, IC95 [37]: 0.289 µg/mL
